Data from patent US20150080315A1.

Assays:
[1] = molecular target: HDAC complex / nucleosome remodeling and deacetylase (NuRD) complex in SNU-398 nuclear extracts; assay: cell-based or functional assay
[2] = molecular target: HDAC complex / nucleosome remodeling and deacetylase (NuRD) complex in SNU-398 nuclear extracts; assay: fluorescence polarization competition; unlabeled peptide displaces FITC-labeled wild type peptide from complexes in SNU-398 nuclear extracts

Molecule	engraftment of human AML cells treated with wild type peptide in NSG mice [1] [%]	IC50 [2] [µM]
endogenous SALL4 (SNU-398 cells) (from UniProt Q9UJQ4 1-1053)	0.5	
MSRRKQAKPQHI [wild type 12-AA SALL4 peptide (…), unlabeled]		5
